Laboratory results from patent US20190248907A1 (published 2019).

Columns and labels:
o.a. B10v5 = experiment: -; apparent KD
bp.CS06xB10v5 = experiment: -; apparent KD

B1: hu c-Met (receptor)
chain: ECKEALAKSEMNVNMKYQLPNFTAETPIQNVILHEHHIFLGATNYIYVLNEEDLQKVAEYKTGPVLEHPDCFPCQDCSSKANLSGGVWKDNINMALVVDTYYDDQLISCGSVNRGTCQRHVFPHNHTADIQSEVHCIFSPQIEEPSQCPDCVVSALGAKVLSSVKDRFINFFVGNTINSSYFPDHPLHSISVRRLKETKDGFMFLTDQSYIDVLPEFRDSYPIKYVHAFESNNFIYFLTVQRETLDAQTFHTRIIRFCSINSGLHSYMEMPLECILTEKRKKRSTKKEVFNILQAAYVSKPGAQLARQIGASLNDDILFGVFAQSKPDSAEPMDRSAMCAFPIKYVNDFFNKIVNKNNVRCLQHFYGPNHEHCFNRTLLRNSSGCEARRDEYRTEFTTALQRVDLFMGQFSEVLLTSISTFIKGDLTIANLGTSEGRFMQVVVSRSGPSTPHVNFLLDSHPVSPEVIVEHTLNQNGYTLVITGKKITKIPLNGLGCRHFQSCSQCLSAPPFVQCGWCHDKCVRSEECLSGTWTQQICLPAIYKVFPNSAPLEGGTRLTICGWDFGFRRNNKFDLKKTRVLLGNESCTLTLSESTMNTLKCTVGPAMNKHFNMSIIISNGHGTTQYSTFSYVDPVITSISPKYGPMAGGTLLTLTGNYLNSGNSRHISIGGKTCTLKSVSNSILECYTPAQTISTEFAVKLKIDLANRETSIFSYREDPIVYEIHPTKSFISGGSTITGVGKNLNSVSVPRMVINVHEAGRNFTVACQHRSNSEIICCTTPSLQQLNLQLPLKTKAFFMLDGILSKYFDLIYVHNPVFKPFEKPVMISMGNENVLEIKGNDIDPEAVKGEVLKVGNKSCENIHLHSEAVLCTVPNDLLKLNSELNIEWKQAISSTVLGKVIVQPDQNFT
For B1, the Kd (o.a. B10v5) was 417 pM and the Kd (bp.CS06xB10v5) was 19.6 pM.
